# Reference: the supplement of paper PMC12042874
# ± gives the uncertainty stated by the source.
# Assay: amyloid nucleation score (Sup35N fusion, yeast selection) (log enrichment); library NNK2; higher = more nucleation; inactive = no reads after selection
# Procedure, shortened: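 The nucleation score is the log enrichment of output over input reads, calculated with DiMSum and centred on the mode score of non-aggregating sequences. Sequences with under 100 input reads were excluded. Reads came from Illumina sequencing of plasmid inserts from psi-negative yeast expressing Sup35N fused to peptides of 20 random codons, induced 24 hours with 100 μM copper sulfate and grown 7 days at 30°C without adenine and uracil.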
row,Substance,amyloid nucleation score
1,MNVDGNFWAGVELTYIEGSS,-0.587 ± 0.79
2,MPGKPWTGVVLKPRSESPAW,0.057 ± 0.48
3,MPIEVILCFGG,1.84 ± 0.34
4,MPNNVPEEN,0.216 ± 0.62
5,MPPHSVSVITNSHF,inactive
6,MRCNYLAEYRFQRG,-0.669 ± 0.44
7,MRGTRACIFKRQDTSNTLNE,-1.42 ± 0.62
8,MRHILCISSVGRFNFRCCFK,-0.038 ± 1
9,MRHRCGHKKVSGV,1.27 ± 0.49
10,MRKLSKLLTWHPRHA,-0.517 ± 0.54
11,MRKWTVSGIRGGRN,0.879 ± 0.23
12,MRLNYVYGCSFLDRIGT,0.57 ± 0.33
13,MRMYLGVDSENRASDMGRTR,1.03 ± 0.36
14,MRVLFIDYKTVRYCDDL,-1.03 ± 1.1
15,MRWGY,-0.393 ± 1
16,MRYEALMHPWSWRFR,1.06 ± 0.12
17,MSCTRDSLCLNFLVILFTTQ,3.03 ± 0.065
18,MSGFKGVITSTFIANSLLPM,-1.17 ± 0.48
19,MSIRIGEWPVHSGAYEESLK,0.223 ± 0.45
20,MSLGMCFKWRHRNIVYNLSA,-0.408 ± 0.63
21,MSLTIWGICRCKQ,-0.097 ± 0.76
22,MSMSHSAGDRDGWIFDHRDV,1.46 ± 0.61
23,MSRNF,4.87 ± 0.076
24,MSRPSSYS,inactive
25,MTGSTSKMGRCFWQFICSGL,inactive

row,Substance,amyloid nucleation score
1,MTVDYLHRLCCMRPLYTSKN,inactive
2,MTYCCITSVPRGRIQNDAVR,inactive
3,MTYCVN,3.87 ± 0.067
4,MVAGITFTNASIWTYNK,3.63 ± 0.075
5,MVCSRYRRVCSNVNG,0.506 ± 0.48
6,MVHPDVNHSYGSVWKPWSDK,0.132 ± 0.44
7,MVLASAAKVMEVLNSKQFT,1.42 ± 0.13
8,MVMGTYVIVRLYKHKNCNAY,-1.36 ± 0.55
9,MVMTYLWARGCCMKLGVQFG,0.396 ± 0.66
10,MVSLLNFRECMHY,inactive
11,MVVDFVVYITVCSFRFKQTF,1.97 ± 0.18
12,MVVRDL,-0.536 ± 1
13,MVVSFGRLGGNLRRNLKVRI,0.214 ± 0.65
14,MVYRSDAGCSPVVTKK,0.259 ± 0.5
15,MYDCGVLFIDIRVKVGHVLE,0.167 ± 0.56
16,MYIRYPFATPYWSFLLGKVT,-0.117 ± 0.35
17,MYPSG,0.321 ± 0.49
18,MYTAMSDSPFNVWRYGMSSY,-0.382 ± 0.29
19,MYWFGTVHQFRKFSENHRMF,0.721 ± 0.8
20,MYYLNSFGRELLSGLKCYKT,-0.698 ± 0.5
21,NAIRFLVMLVGTWF,0.25 ± 0.24
22,NALHEIQLDICMRSIEARGY,-1.19 ± 0.39
23,NARCMCWSGINLVTWYLLKE,7.145 ± 0.04
24,NAVYACLVGEVLWSSISTLS,0.058 ± 0.54
25,NAYWNDGFVQAFGRGK,-0.644 ± 0.63

row,Substance,amyloid nucleation score
1,NCDVGYLCLEKFNIPRRSVL,-0.805 ± 0.64
2,NCIRSNDRMMFPLCVTLSCS,0.335 ± 0.39
3,NCNRYRMRTKFRRSYMGSVR,0.157 ± 0.28
4,NCPCGHVVRVNNNWRCFSVT,6.933 ± 0.052
5,NCSKENKPGVIETISVGMGP,1.01 ± 0.48
6,NCYFKLSYEDMIRQCKRLNE,3.44 ± 0.069
7,NDAYITSVVGFTRYMYNFMV,inactive
8,NDFWRYV,-0.591 ± 0.24
9,NDKSFSMLATE,0.707 ± 0.46
10,NDSVRTVGCIQYMMRIASVF,0.783 ± 0.57
11,NELNLDKPSDLPLS,0.844 ± 0.31
12,NESSTSQNKGTRTDKGAESL,0.376 ± 0.33
13,NFDSYVYNVASVFYVVGLGV,5.321 ± 0.048
14,NFFNFSDMYRYGNKIWGGAN,0.208 ± 1.1
15,NFIVIALRGTDNTYSLSGLS,6.407 ± 0.043
16,NFKWLILAGGVC,-0.808 ± 0.41
17,NFLWPCRIHVQGCIHISDTD,6.171 ± 0.045
18,NFNHVSEI,inactive
19,NFNYFGWISQEIPPLLAGLS,-0.509 ± 1.1
20,NFQVNMFVMF,8.986 ± 0.027
21,NFSTGEGMYRNYNWDSQVRV,inactive
22,NFTSGGRRHNVERVGHLGLV,-0.168 ± 0.76
23,NFTYVSIVMLLSRVWVGFNK,inactive
24,NFYAYIIVDCSWMCSTCYSL,5.52 ± 0.044
25,NGGLLYDI,inactive

row,Substance,amyloid nucleation score
1,NGNGCLAFAKTVFCWVDGLP,7.215 ± 0.046
2,NGRIICNESMSLYKSEV,0.842 ± 0.8
3,NGSMIKWDRFASCILHAML,inactive
4,NGTTWKYYSRMSVTCAGPSI,-0.952 ± 0.39
5,NGTVDACLSLMPQGWHSGLE,3.76 ± 0.12
6,NGVRYYFRVRGSMTRLNEAE,0.276 ± 1
7,NGWIYAYDLLLERTSQSWKI,-0.472 ± 0.32
8,NGWKYLYIWFPAICSCFMRG,-0.213 ± 0.24
9,NHAVVCLDFNGGFPGQA,-0.481 ± 0.53
10,NHLLMGGGHKDAVGQSVFGI,0.074 ± 0.74
11,NHSMRFVLTMPILWKNQKAG,0.228 ± 1
12,NIAVPEKAVYTYSPSETQAL,-0.583 ± 0.55
13,NIFMLTLGCGCQAFCSVIMT,1.44 ± 0.17
14,NIFRMHLGQASQVIIFLDCR,4.58 ± 0.12
15,NIGKMLRALFDMSNVRT,-1.17 ± 0.39
16,NILLIPMRGFSRFRSVMVIP,-0.202 ± 1.1
17,NINRAQHISDVSCPDENLCI,4.07 ± 0.11
18,NIRFTSLFRLCYFSCDSVSN,5.301 ± 0.035
19,NKRLLLMFNRWDCVVSWDKC,-1.31 ± 0.78
20,NKRMRVRVEGRLINV,0.089 ± 0.42
21,NKRPSRTNLWIKALVRP,inactive
22,NKTPYIDFVLTR,0.236 ± 1.1
23,NKVEALLWTKTTLQCSLRSV,4.82 ± 0.059
24,NKVVAFNGLV,inactive
25,NKVVGNTNTFLEND,3.91 ± 0.094

row,Substance,amyloid nucleation score
1,NKWSPEGNSACRDSVCTHIY,-0.807 ± 0.76
2,NLAFSSSIRPLITLEGELLP,-0.176 ± 1.1
3,NLDCLYTLAS,0.339 ± 0.8
4,NLDEQGFAVSWETVLLWSEE,-0.005 ± 0.5
5,NLDGIVRMTN,-0.543 ± 0.56
6,NLFLLYEAW,-0.155 ± 0.2
7,NLFYLARSMLINLQMYKTER,4.46 ± 0.08
8,NLGCWLVGWLNCGFRWDDDR,5.639 ± 0.038
9,NLGHTCVCFKRIRSYFFSYR,-0.94 ± 0.49
10,NLGTWD,-0.156 ± 0.28
11,NLGYYTG,-0.868 ± 1.1
12,NLHLGMEFTCELRCYWIRLP,0.279 ± 0.5
13,NLIKNSAMLSSTRPIYHHSI,-1.27 ± 0.3
14,NLILWKTYCAAFCVGFINCT,5.36 ± 0.069
15,NLLLVFSILNSGRMTLNDNK,5.48 ± 0.094
16,NLLWLFDV,0.19 ± 1.1
17,NLLWYKLNLNTYVACAIKWW,0.198 ± 0.38
18,NLNFKDGPGDLTCMRDRAFS,-0.508 ± 0.63
19,NLRLDIAFSPWPRSGYNSGS,0.292 ± 0.64
20,NLTMYILRNYTCIMYYIKVC,-0.208 ± 1
21,NLTVCMLDSPGYQKDCGMRL,1.54 ± 0.27
22,NLVFSTRIHKFFLNRGEG,5.15 ± 0.058
23,NLYMFIRRAPDIIFCAHVYQ,4.35 ± 0.051
24,NMGLFGGILVFVMWLIMCSL,2.31 ± 0.15
25,NMIYYMFEYAWPCIVER,7.37 ± 0.08

row,Substance,amyloid nucleation score
1,NMLKGMCWVTLCIWMYMRLC,4.09 ± 0.057
2,NMMCISSHGSTTSGFLRSSL,3.52 ± 0.062
3,NMNGF,-0.532 ± 1
4,NMRTNLWNIIAFLSSRSIAQ,0.857 ± 0.35
5,NMSCKFSNPWNWFD,-0.11 ± 0.39
6,NMWTFRSIMIPALFYEIFIA,-1.75 ± 0.54
7,NNDDQSFCAWVFNDVQ,0.056 ± 0.6
8,NNDYFTEGAGKGVTLIGALG,4.443 ± 0.041
9,NNGMFGNFSKSDYFDKWRYM,inactive
10,NNKLSRV,-0.661 ± 1.1
11,NNLKLCNRTMCLVYEVCVTD,-1.23 ± 0.62
12,NNRYELCSSQH,inactive
13,NNSGSNKSD,-0.509 ± 0.78
14,NNVSLPYMSSIVIIGLIRR,7.193 ± 0.057
15,NPSFNESFLSGSQKVQILMG,-0.509 ± 1.1
16,NPSLELYKYISAIDMGINPP,inactive
17,NPTLGHKNVFVRYSF,2.9 ± 0.14
18,NPYINLLRFIDSDSSALV,-1.35 ± 1.1
19,NQAYR,0.12 ± 0.43
20,NQCAVQGLYRRRMVHDRQED,-0.52 ± 0.78
21,NQVFSIALAQNRSRHFFLGG,inactive
22,NRADGDKFSSSPSPTWKYME,-0.081 ± 1.1
23,NRCLGIT,0.231 ± 0.48
24,NRECCTSDLRIMNVLRPL,-0.028 ± 0.18
25,NREIGISWEGWMMLKILQYK,inactive

row,Substance,amyloid nucleation score
1,NRFDDVSDDVKTCC,5.82 ± 0.059
2,NRGFFGSYGVPELQNMDQFE,0.153 ± 0.79
3,NRIGLCRGLNQFFLPGMWSR,0.283 ± 0.26
4,NRISGLGMSSKGKRGKVMLK,0.493 ± 0.46
5,NRKFARWLLLT,-0.492 ± 0.61
6,NRLSELGPCFHLFTSV,0.089 ± 1.1
7,NRMRVMAWCAILNKELSGGK,0.93 ± 0.51
8,NRPLCSFDTEFDLYEQIHLR,4.38 ± 0.086
9,NRSTRGWGVVSTLCYRLSSF,inactive
10,NRWLYFHS,-0.678 ± 0.76
11,NRWYKLRLYICYDLRIAVFN,-1.58 ± 1.1
12,NSDRL,-0.794 ± 0.45
13,NSFVCMLPGVFVKCRCSNAD,4.832 ± 0.044
14,NSGYIGLGLSF,-0.224 ± 0.65
15,NSLANDTQIRKNCLSIV,-0.474 ± 1.1
16,NSLLVFQNNFGIETNGVNII,0.94 ± 0.74
17,NSSRL,-0.166 ± 1.1
18,NSTFLCLVGFFCLVFSLRQG,3.77 ± 0.1
19,NSTLRSLYTVFFIRMLQMVG,-0.753 ± 0.36
